In patent US20260015399A1 (Boehringer Ingelheim, published 2026):
*1 amine or outer side, *2 acyl side, *3 side chain or, on linkers, in order; H or OH if unused. Side-chain parts run from the residue outwards. The star is where a group is joined. C18 diacid = O=C(O)CCCCCCCCCCCCCCCCC(=O)*; γGlu = O=C(O)[C@H](CCC(=O)[*:2])N[*:1]; Isovaleryl = CC(C)CC(=O)*; Ahx = NCCCCCC(=O)O

T1: human NPY2 receptor (human, UniProt P49146 1-381)
T1 construct: whole, on cells; also called hNPY2-R; hNPY2R
T1 sequence (looked up): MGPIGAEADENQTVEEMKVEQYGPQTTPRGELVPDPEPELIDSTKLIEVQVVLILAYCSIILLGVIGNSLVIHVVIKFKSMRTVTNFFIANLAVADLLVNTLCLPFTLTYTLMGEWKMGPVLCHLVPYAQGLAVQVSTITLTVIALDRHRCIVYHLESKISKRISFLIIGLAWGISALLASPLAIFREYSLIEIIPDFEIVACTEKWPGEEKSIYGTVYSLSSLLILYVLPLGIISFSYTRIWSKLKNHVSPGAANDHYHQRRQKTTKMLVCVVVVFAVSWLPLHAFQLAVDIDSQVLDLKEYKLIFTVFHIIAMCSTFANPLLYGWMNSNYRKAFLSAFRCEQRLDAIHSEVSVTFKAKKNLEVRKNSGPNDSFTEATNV

B1: Compound 57 (peptide)
peptide: Isovaleryl-APAK([Ahx-γGlu-C18 diacid])PEEDATPEEAQRYYVSLRHYYNWLTRQRY-NH2
SMILES: CC(C)CC(=O)N[C@@H](C)C(=O)N1CCC[C@H]1C(=O)N[C@@H](C)C(=O)N[C@@H](CCCCNC(=O)CCCCCNC(=O)CC[C@H](NC(=O)CCCCCCCCCCCCCCCCC(=O)O)C(=O)O)C(=O)N1CCC[C@H]1C(=O)N[C@@H](CCC(=O)O)C(=O)N[C@@H](CCC(=O)O)C(=O)N[C@@H](CC(=O)O)C(=O)N[C@@H](C)C(=O)N[C@H](C(=O)N1CCC[C@H]1C(=O)N[C@@H](CCC(=O)O)C(=O)N[C@@H](CCC(=O)O)C(=O)N[C@@H](C)C(=O)N[C@@H](CCC(N)=O)C(=O)N[C@@H](CCCNC(=N)N)C(=O)N[C@@H](Cc1ccc(O)cc1)C(=O)N[C@@H](Cc1ccc(O)cc1)C(=O)N[C@H](C(=O)N[C@@H](CO)C(=O)N[C@@H](CC(C)C)C(=O)N[C@@H](CCCNC(=N)N)C(=O)N[C@@H](Cc1c[nH]cn1)C(=O)N[C@@H](Cc1ccc(O)cc1)C(=O)N[C@@H](Cc1ccc(O)cc1)C(=O)N[C@@H](CC(N)=O)C(=O)N[C@@H](Cc1c[nH]c2ccccc12)C(=O)N[C@@H](CC(C)C)C(=O)N[C@H](C(=O)N[C@@H](CCCNC(=N)N)C(=O)N[C@@H](CCC(N)=O)C(=O)N[C@@H](CCCNC(=N)N)C(=O)N[C@@H](Cc1ccc(O)cc1)C(N)=O)[C@@H](C)O)C(C)C)[C@@H](C)O
B2: Compound 59 (peptide)
peptide: Isovaleryl-APAK([Ahx-γGlu-C18 diacid])PEEDASPEELQRYYVQLRHYYNWLTRQRY-NH2
SMILES: CC(C)CC(=O)N[C@@H](C)C(=O)N1CCC[C@H]1C(=O)N[C@@H](C)C(=O)N[C@@H](CCCCNC(=O)CCCCCNC(=O)CC[C@H](NC(=O)CCCCCCCCCCCCCCCCC(=O)O)C(=O)O)C(=O)N1CCC[C@H]1C(=O)N[C@@H](CCC(=O)O)C(=O)N[C@@H](CCC(=O)O)C(=O)N[C@@H](CC(=O)O)C(=O)N[C@@H](C)C(=O)N[C@@H](CO)C(=O)N1CCC[C@H]1C(=O)N[C@@H](CCC(=O)O)C(=O)N[C@@H](CCC(=O)O)C(=O)N[C@@H](CC(C)C)C(=O)N[C@@H](CCC(N)=O)C(=O)N[C@@H](CCCNC(=N)N)C(=O)N[C@@H](Cc1ccc(O)cc1)C(=O)N[C@@H](Cc1ccc(O)cc1)C(=O)N[C@H](C(=O)N[C@@H](CCC(N)=O)C(=O)N[C@@H](CC(C)C)C(=O)N[C@@H](CCCNC(=N)N)C(=O)N[C@@H](Cc1c[nH]cn1)C(=O)N[C@@H](Cc1ccc(O)cc1)C(=O)N[C@@H](Cc1ccc(O)cc1)C(=O)N[C@@H](CC(N)=O)C(=O)N[C@@H](Cc1c[nH]c2ccccc12)C(=O)N[C@@H](CC(C)C)C(=O)N[C@H](C(=O)N[C@@H](CCCNC(=N)N)C(=O)N[C@@H](CCC(N)=O)C(=O)N[C@@H](CCCNC(=N)N)C(=O)N[C@@H](Cc1ccc(O)cc1)C(N)=O)[C@@H](C)O)C(C)C
B3: Compound 58 (peptide)
peptide: Isovaleryl-APEK([Ahx-γGlu-C18 diacid])PEEDATPEEVQRYYVSLRHYYNWLTRQRY-NH2
SMILES: CC(C)CC(=O)N[C@@H](C)C(=O)N1CCC[C@H]1C(=O)N[C@@H](CCC(=O)O)C(=O)N[C@@H](CCCCNC(=O)CCCCCNC(=O)CC[C@H](NC(=O)CCCCCCCCCCCCCCCCC(=O)O)C(=O)O)C(=O)N1CCC[C@H]1C(=O)N[C@@H](CCC(=O)O)C(=O)N[C@@H](CCC(=O)O)C(=O)N[C@@H](CC(=O)O)C(=O)N[C@@H](C)C(=O)N[C@H](C(=O)N1CCC[C@H]1C(=O)N[C@@H](CCC(=O)O)C(=O)N[C@@H](CCC(=O)O)C(=O)N[C@H](C(=O)N[C@@H](CCC(N)=O)C(=O)N[C@@H](CCCNC(=N)N)C(=O)N[C@@H](Cc1ccc(O)cc1)C(=O)N[C@@H](Cc1ccc(O)cc1)C(=O)N[C@H](C(=O)N[C@@H](CO)C(=O)N[C@@H](CC(C)C)C(=O)N[C@@H](CCCNC(=N)N)C(=O)N[C@@H](Cc1c[nH]cn1)C(=O)N[C@@H](Cc1ccc(O)cc1)C(=O)N[C@@H](Cc1ccc(O)cc1)C(=O)N[C@@H](CC(N)=O)C(=O)N[C@@H](Cc1c[nH]c2ccccc12)C(=O)N[C@@H](CC(C)C)C(=O)N[C@H](C(=O)N[C@@H](CCCNC(=N)N)C(=O)N[C@@H](CCC(N)=O)C(=O)N[C@@H](CCCNC(=N)N)C(=O)N[C@@H](Cc1ccc(O)cc1)C(N)=O)[C@@H](C)O)C(C)C)C(C)C)[C@@H](C)O
B4: Compound 62 (peptide)
peptide: Isovaleryl-APAK([Ahx-γGlu-C18 diacid])PPEDASPEELQRYYVELRHYYNWLTRQRY-NH2
SMILES: CC(C)CC(=O)N[C@@H](C)C(=O)N1CCC[C@H]1C(=O)N[C@@H](C)C(=O)N[C@@H](CCCCNC(=O)CCCCCNC(=O)CC[C@H](NC(=O)CCCCCCCCCCCCCCCCC(=O)O)C(=O)O)C(=O)N1CCC[C@H]1C(=O)N1CCC[C@H]1C(=O)N[C@@H](CCC(=O)O)C(=O)N[C@@H](CC(=O)O)C(=O)N[C@@H](C)C(=O)N[C@@H](CO)C(=O)N1CCC[C@H]1C(=O)N[C@@H](CCC(=O)O)C(=O)N[C@@H](CCC(=O)O)C(=O)N[C@@H](CC(C)C)C(=O)N[C@@H](CCC(N)=O)C(=O)N[C@@H](CCCNC(=N)N)C(=O)N[C@@H](Cc1ccc(O)cc1)C(=O)N[C@@H](Cc1ccc(O)cc1)C(=O)N[C@H](C(=O)N[C@@H](CCC(=O)O)C(=O)N[C@@H](CC(C)C)C(=O)N[C@@H](CCCNC(=N)N)C(=O)N[C@@H](Cc1c[nH]cn1)C(=O)N[C@@H](Cc1ccc(O)cc1)C(=O)N[C@@H](Cc1ccc(O)cc1)C(=O)N[C@@H](CC(N)=O)C(=O)N[C@@H](Cc1c[nH]c2ccccc12)C(=O)N[C@@H](CC(C)C)C(=O)N[C@H](C(=O)N[C@@H](CCCNC(=N)N)C(=O)N[C@@H](CCC(N)=O)C(=O)N[C@@H](CCCNC(=N)N)C(=O)N[C@@H](Cc1ccc(O)cc1)C(N)=O)[C@@H](C)O)C(C)C
B5: Compound 60 (peptide)
peptide: Isovaleryl-APEK([Ahx-γGlu-C18 diacid])PEEDASPEELQRYYVSLRHYYQWLTRQRY-NH2
SMILES: CC(C)CC(=O)N[C@@H](C)C(=O)N1CCC[C@H]1C(=O)N[C@@H](CCC(=O)O)C(=O)N[C@@H](CCCCNC(=O)CCCCCNC(=O)CC[C@H](NC(=O)CCCCCCCCCCCCCCCCC(=O)O)C(=O)O)C(=O)N1CCC[C@H]1C(=O)N[C@@H](CCC(=O)O)C(=O)N[C@@H](CCC(=O)O)C(=O)N[C@@H](CC(=O)O)C(=O)N[C@@H](C)C(=O)N[C@@H](CO)C(=O)N1CCC[C@H]1C(=O)N[C@@H](CCC(=O)O)C(=O)N[C@@H](CCC(=O)O)C(=O)N[C@@H](CC(C)C)C(=O)N[C@@H](CCC(N)=O)C(=O)N[C@@H](CCCNC(=N)N)C(=O)N[C@@H](Cc1ccc(O)cc1)C(=O)N[C@@H](Cc1ccc(O)cc1)C(=O)N[C@H](C(=O)N[C@@H](CO)C(=O)N[C@@H](CC(C)C)C(=O)N[C@@H](CCCNC(=N)N)C(=O)N[C@@H](Cc1c[nH]cn1)C(=O)N[C@@H](Cc1ccc(O)cc1)C(=O)N[C@@H](Cc1ccc(O)cc1)C(=O)N[C@@H](CCC(N)=O)C(=O)N[C@@H](Cc1c[nH]c2ccccc12)C(=O)N[C@@H](CC(C)C)C(=O)N[C@H](C(=O)N[C@@H](CCCNC(=N)N)C(=O)N[C@@H](CCC(N)=O)C(=O)N[C@@H](CCCNC(=N)N)C(=O)N[C@@H](Cc1ccc(O)cc1)C(N)=O)[C@@H](C)O)C(C)C
B6: Compound 61 (peptide)
peptide: Isovaleryl-APEK([Ahx-γGlu-C18 diacid])PPADASPEEIQRYYVSLRHYYNWLTRQRY-NH2
SMILES: CC[C@H](C)[C@H](NC(=O)[C@H](CCC(=O)O)NC(=O)[C@H](CCC(=O)O)NC(=O)[C@@H]1CCCN1C(=O)[C@H](CO)NC(=O)[C@H](C)NC(=O)[C@H](CC(=O)O)NC(=O)[C@H](C)NC(=O)[C@@H]1CCCN1C(=O)[C@@H]1CCCN1C(=O)[C@H](CCCCNC(=O)CCCCCNC(=O)CC[C@H](NC(=O)CCCCCCCCCCCCCCCCC(=O)O)C(=O)O)NC(=O)[C@H](CCC(=O)O)NC(=O)[C@@H]1CCCN1C(=O)[C@H](C)NC(=O)CC(C)C)C(=O)N[C@@H](CCC(N)=O)C(=O)N[C@@H](CCCNC(=N)N)C(=O)N[C@@H](Cc1ccc(O)cc1)C(=O)N[C@@H](Cc1ccc(O)cc1)C(=O)N[C@H](C(=O)N[C@@H](CO)C(=O)N[C@@H](CC(C)C)C(=O)N[C@@H](CCCNC(=N)N)C(=O)N[C@@H](Cc1c[nH]cn1)C(=O)N[C@@H](Cc1ccc(O)cc1)C(=O)N[C@@H](Cc1ccc(O)cc1)C(=O)N[C@@H](CC(N)=O)C(=O)N[C@@H](Cc1c[nH]c2ccccc12)C(=O)N[C@@H](CC(C)C)C(=O)N[C@H](C(=O)N[C@@H](CCCNC(=N)N)C(=O)N[C@@H](CCC(N)=O)C(=O)N[C@@H](CCCNC(=N)N)C(=O)N[C@@H](Cc1ccc(O)cc1)C(N)=O)[C@@H](C)O)C(C)C

These binders were tested against T1, human NPY2 receptor (assay: RLB: displacement of 125I-PYY(1-36) from hNPY2R membranes).

| Ki [nM] | Binder |
| --- | --- |
| 2.07 | B1 |
| 1.93 | B2 |
| 3.46 | B3 |
| 1.44 | B4 |
| 6.04 | B5 |
| 0.41 | B6 |
